Where a chain is given by its changes, count along the chain named.
Assays:
cynomolgus monkey BCMA = molecular target: T1, cynomolgus monkey BCMA (cynomolgus monkey, UniProt A0A2K5UD97 1-53); experiment: SPR, IgG on chip, cyBCMA analyte
T1 construct: Soluble analyte in SPR; construct not described; also called cyBCMA; Cyno BCMA

Human BCMA (human) = Human BCMA (human) (UniProt Q02223); experiment: SPR, IgG on chip, huBCMA analyte

T1 sequence (A0A2K5UD97 entry or part of it): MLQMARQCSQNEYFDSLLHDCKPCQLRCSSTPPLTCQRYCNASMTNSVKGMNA

B1: COMBO_Rd4_0.6nM_C11 (antibody, V domains shown)
VH: EVQLLESGGGLVQPGGSLRLSCAASGFTFSSYPMSWVRQAPGKGLEWVSAALGSGGSTYYADSVKGRFTISRDNSKNTLYLQMNSLRAEDTAVYYCARYWPMSLWGQGTLVTVSS
VL: EIVLTQSPGTLSLSPGERATLSCRASQSVSVRYLAWYQQKPGQAPRLLMYDASIRATGIPDRFSGSGSGTDFTLTISRLEPEDFAVYYCQQYGSWPITFGQGTKVEIK
notes: IgG
- Kd (cynomolgus monkey BCMA): 1920 pM
- koff (cynomolgus monkey BCMA): 0.00423 s⁻¹
- kon (cynomolgus monkey BCMA): 2.2e+06 M⁻¹ s⁻¹
- Kd (Human BCMA (human)): 207 pM
- koff (Human BCMA (human)): 0.00106 s⁻¹
- kon (Human BCMA (human)): 5.11e+06 M⁻¹ s⁻¹

B2: C01_Rd4_6nM_C20 (antibody, V domains shown)
VH: B1 VH with A51I, L52G, T58L, Y59P, S103D, L104S
VL: B1 VL with V31P, R32L, M49I, I54S, T57P, G93S, S94A, W95F, I97L
notes: IgG
- Kd (cynomolgus monkey BCMA): 1740 pM
- koff (cynomolgus monkey BCMA): 0.00625 s⁻¹
- kon (cynomolgus monkey BCMA): 3.6e+06 M⁻¹ s⁻¹
- Kd (Human BCMA (human)): 459 pM
- koff (Human BCMA (human)): 0.00276 s⁻¹
- kon (Human BCMA (human)): 6.02e+06 M⁻¹ s⁻¹

B3: COMBO_Rd4_0.6nM_C09 (antibody, V domains shown)
VH: B1 VH with A51I, L52G, T58L, Y59P, S103D, L104I
VL: B1 VL with V31S, R32T, G93Q, S94E, I97L
notes: IgG
- Kd (cynomolgus monkey BCMA): 92 pM
- koff (cynomolgus monkey BCMA): 0.000346 s⁻¹
- kon (cynomolgus monkey BCMA): 3.77e+06 M⁻¹ s⁻¹
- Kd (Human BCMA (human)): 31 pM
- koff (Human BCMA (human)): 0.000319 s⁻¹
- kon (Human BCMA (human)): 1.04e+07 M⁻¹ s⁻¹

B4: COMBO_Rd4_6nM_C10 (antibody, V domains shown)
VH: B1 VH with A51I, L52G, T58I, Y59H, S103D, L104S
VL: B1 VL with V31S, R32S, L34W, A35G, G93Q, S94C, I97L
notes: IgG
- Kd (cynomolgus monkey BCMA): 105 pM
- koff (cynomolgus monkey BCMA): 0.00016 s⁻¹
- kon (cynomolgus monkey BCMA): 1.52e+06 M⁻¹ s⁻¹
- Kd (Human BCMA (human)): 18 pM
- koff (Human BCMA (human)): 9.72e-05 s⁻¹
- kon (Human BCMA (human)): 5.47e+06 M⁻¹ s⁻¹

B5: COMBO_Rd4_0.6nM_C05 (antibody, V domains shown)
VH: B1 VH with P33A, S35N, A51I, L52G
VL: B1 VL with V31S, R32T, G93M, I97L
notes: IgG
- Kd (cynomolgus monkey BCMA): 886 pM
- koff (cynomolgus monkey BCMA): 0.00172 s⁻¹
- kon (cynomolgus monkey BCMA): 1.94e+06 M⁻¹ s⁻¹
- Kd (Human BCMA (human)): 115 pM
- koff (Human BCMA (human)): 0.000497 s⁻¹
- kon (Human BCMA (human)): 4.32e+06 M⁻¹ s⁻¹

B6: COMBO_Rd4_6nM_C02 (antibody, V domains shown)
VH: B1 VH with P33A, S35N, A51I, L52S, G53D, S57F, T58V, S103D, L104S
VL: B1 VL with V31S, R32S, G93E, S94F, I97L
notes: IgG
- Kd (cynomolgus monkey BCMA): 1710 pM
- koff (cynomolgus monkey BCMA): 0.00136 s⁻¹
- kon (cynomolgus monkey BCMA): 795000 M⁻¹ s⁻¹
- Kd (Human BCMA (human)): 422 pM
- koff (Human BCMA (human)): 0.000443 s⁻¹
- kon (Human BCMA (human)): 1.05e+06 M⁻¹ s⁻¹

B7: C01_Rd4_6nM_C09 (antibody, V domains shown)
VH: B1 VH with A51T, L52V, T58I, Y59G, S103D, L104S
VL: B1 VL with R24A, A25C, V31S, R32T, M49I, I54S, T57P, G93S, S94A, I97L
notes: IgG
- Kd (cynomolgus monkey BCMA): 2330 pM
- koff (cynomolgus monkey BCMA): 0.00868 s⁻¹
- kon (cynomolgus monkey BCMA): 3.73e+06 M⁻¹ s⁻¹
- Kd (Human BCMA (human)): 811 pM
- koff (Human BCMA (human)): 0.0128 s⁻¹
- kon (Human BCMA (human)): 1.58e+07 M⁻¹ s⁻¹

B8: C01_Rd4_6nM_C04 (antibody, V domains shown)
VH: B1 VH with A51I, L52G, T58L, Y59P, S103D, L104S
VL: EIVLTQSPGTLSLSPGERATLSCCSSQSVSSTYLAWYQQKPGQAPRLLIYDASSRAPGIPDRFSGSGSGTDFTLTISRLEPEDFAVYYCQQYSAFPLTFGQGTKVEIK
notes: IgG
- Kd (cynomolgus monkey BCMA): 5160 pM
- koff (cynomolgus monkey BCMA): 0.0327 s⁻¹
- kon (cynomolgus monkey BCMA): 6.34e+06 M⁻¹ s⁻¹
- Kd (Human BCMA (human)): 2130 pM
- koff (Human BCMA (human)): 0.0497 s⁻¹
- kon (Human BCMA (human)): 2.33e+07 M⁻¹ s⁻¹

B9: C01_Rd4_0.6nM_C03 (antibody, V domains shown)
VH: B1 VH with A51I, L52G, T58L, Y59P, S103D, L104S
VL: B8 VL with C24R, S25A, Q27C, S28D, S93M, A94R, F95S
notes: IgG
- Kd (cynomolgus monkey BCMA): 2530 pM
- koff (cynomolgus monkey BCMA): 0.0119 s⁻¹
- kon (cynomolgus monkey BCMA): 4.72e+06 M⁻¹ s⁻¹
- Kd (Human BCMA (human)): 964 pM
- koff (Human BCMA (human)): 0.015 s⁻¹
- kon (Human BCMA (human)): 1.55e+07 M⁻¹ s⁻¹

B10: C01_Rd4_0.6nM_C06 (antibody, V domains shown)
VH: B1 VH with A51I, L52G, T58L, Y59P, S103D, L104S
VL: B8 VL with C24R, S25A, Q27E, S28A, S30P
notes: IgG
- Kd (cynomolgus monkey BCMA): 1950 pM
- koff (cynomolgus monkey BCMA): 0.0121 s⁻¹
- kon (cynomolgus monkey BCMA): 6.22e+06 M⁻¹ s⁻¹
- Kd (Human BCMA (human)): 847 pM
- koff (Human BCMA (human)): 0.0154 s⁻¹
- kon (Human BCMA (human)): 1.82e+07 M⁻¹ s⁻¹

B11: COMBO_Rd4_6nM_C09 (antibody, V domains shown)
VH: B1 VH with A51I, L52F, G53A, S103D, L104S
VL: B1 VL with V31A, R32Q, G93Q, S94A, I97L
notes: IgG
- Kd (cynomolgus monkey BCMA): 134 pM
- koff (cynomolgus monkey BCMA): 0.000318 s⁻¹
- kon (cynomolgus monkey BCMA): 2.37e+06 M⁻¹ s⁻¹
- Kd (Human BCMA (human)): 16 pM
- koff (Human BCMA (human)): 0.000143 s⁻¹
- kon (Human BCMA (human)): 8.85e+06 M⁻¹ s⁻¹

B12: COMBO_Rd4_0.6nM_C02 (antibody, V domains shown)
VH: B1 VH with A51I, L52G, T58L, Y59P, S103D, L104S
VL: B1 VL with Q27I, S28A, V31S, R32T, G93M, S94V, I97L
notes: IgG
- Kd (cynomolgus monkey BCMA): 164 pM
- koff (cynomolgus monkey BCMA): 0.000494 s⁻¹
- kon (cynomolgus monkey BCMA): 3.01e+06 M⁻¹ s⁻¹
- Kd (Human BCMA (human)): 22 pM
- koff (Human BCMA (human)): 0.000185 s⁻¹
- kon (Human BCMA (human)): 8.57e+06 M⁻¹ s⁻¹

B13: COMBO_Rd4_0.6nM_C19 (antibody, V domains shown)
VH: B1 VH with A51I, L52G, T58L, Y59P, S103D, L104S
VL: B1 VL with V31A, R32V, G93R, S94A, I97L
notes: IgG
- Kd (cynomolgus monkey BCMA): 336 pM
- koff (cynomolgus monkey BCMA): 0.000979 s⁻¹
- kon (cynomolgus monkey BCMA): 2.92e+06 M⁻¹ s⁻¹
- Kd (Human BCMA (human)): 20 pM
- koff (Human BCMA (human)): 0.000155 s⁻¹
- kon (Human BCMA (human)): 7.86e+06 M⁻¹ s⁻¹

B14: C01_Rd4_6nM_C26 (antibody, V domains shown)
VH: B1 VH with A51I, L52G, T58L, Y59P, S103D, L104S
VL: B8 VL with C24R, S25A, S31A, T32L, F95W
notes: IgG
- Kd (cynomolgus monkey BCMA): 419 pM
- koff (cynomolgus monkey BCMA): 0.00199 s⁻¹
- kon (cynomolgus monkey BCMA): 4.75e+06 M⁻¹ s⁻¹
- Kd (Human BCMA (human)): 90 pM
- koff (Human BCMA (human)): 0.00136 s⁻¹
- kon (Human BCMA (human)): 1.5e+07 M⁻¹ s⁻¹

B15: COMBO_Rd4_0.6nM_C30 (antibody, V domains shown)
VH: B1 VH with A51I, L52G, S103D, L104S
VL: B1 VL with V31Y, R32M, M49I, G93K, I97L
notes: IgG
- Kd (cynomolgus monkey BCMA): 481 pM
- koff (cynomolgus monkey BCMA): 0.000808 s⁻¹
- kon (cynomolgus monkey BCMA): 1.68e+06 M⁻¹ s⁻¹
- Kd (Human BCMA (human)): 65 pM
- koff (Human BCMA (human)): 0.000282 s⁻¹
- kon (Human BCMA (human)): 4.35e+06 M⁻¹ s⁻¹
